B1: (beta-Asp10) abaloparatide ([b-Asp10, Glu22,25, Leu23,28,31, Aib29, Lys26,30]hPTHrP(1-34)NH2) (peptide)
peptide: AVSEHQLLHXKGKSIQDLRRRELLEKLLXKLHTA
modifications: beta-Asp at position 10; Aib (2-aminoisobutyric acid) at position 29; C-terminal amide (NH2)

Target: PTH receptors
Assay: cell-based or functional assay

Binder | EC50, production of cAMP in a cell base potency assay for functional PTH activity [ng/mL]
B1 | 3.3
AVSEHQLLHDKGKSIQDLRRRELLEKLLXKLHTA (Aib (2-aminoisobutyric acid) at position 29; C-terminal amide (NH2)) [abaloparatide ([Glu22,25, Leu23,28,31, Aib29, Lys26,30]hPTHrP(1-34)NH2)] | 0.325

From US11835506 (RADIUS HEALTH, dated 2023)
